The source of these data is patent US20220298218A1 (ANTAG THERAPEUTICS, published 2022).

The target of this experiment is T1, human GIP receptor (human, UniProt P48546 22-466).
T1 sequence (looked up): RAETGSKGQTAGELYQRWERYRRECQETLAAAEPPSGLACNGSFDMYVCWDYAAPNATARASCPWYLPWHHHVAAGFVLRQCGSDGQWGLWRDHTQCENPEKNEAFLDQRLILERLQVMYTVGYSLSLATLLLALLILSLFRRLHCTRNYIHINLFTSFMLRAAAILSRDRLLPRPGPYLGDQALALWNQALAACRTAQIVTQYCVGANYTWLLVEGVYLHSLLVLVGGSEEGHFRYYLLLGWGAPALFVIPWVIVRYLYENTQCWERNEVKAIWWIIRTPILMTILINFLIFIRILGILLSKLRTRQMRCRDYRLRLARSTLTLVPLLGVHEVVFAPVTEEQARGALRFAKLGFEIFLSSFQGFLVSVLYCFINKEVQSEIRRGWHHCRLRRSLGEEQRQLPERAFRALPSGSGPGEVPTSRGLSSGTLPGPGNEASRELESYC
Briefly: cell-based or functional assay.

*1 amine or outer side, *2 acyl side, *3 side chain or, on linkers, in order; H or OH if unused. Where no end group is shown, it is not given here. Side-chain parts run from the residue outwards. The star is where a group is joined. C18 diacid = O=C(O)CCCCCCCCCCCCCCCCC(=O)*; C16 diacid = O=C(O)CCCCCCCCCCCCCCC(=O)*; γGlu = O=C(O)[C@H](CCC(=O)[*:2])N[*:1]; Stearoyl = CCCCCCCCCCCCCCCCCC(=O)*; AEEA = NCCOCCOCC(=O)O

B1: AT547 (peptide)
peptide: EGTFISDYSIAMDKIKQQDFVNWLLAQKGKKNDW
HELM: PEPTIDE1{E.G.T.F.I.S.D.Y.S.I.A.M.D.K.I.K.Q.Q.D.F.V.N.W.L.L.A.Q.K.G.K.K.N.D.W}|PEPTIDE2{[CCCCCCCCCCCCCCCCCC(=O)[*:2]].[gGlu].[gGlu]}$PEPTIDE1,PEPTIDE2,16:R3-3:R2$$$V2.0; N-terminus assumed
SMILES: CCCCCCCCCCCCCCCCCC(=O)N[C@@H](CCC(=O)N[C@@H](CCC(=O)NCCCC[C@H](NC(=O)[C@@H](NC(=O)[C@H](CCCCN)NC(=O)[C@H](CC(=O)O)NC(=O)[C@H](CCSC)NC(=O)[C@H](C)NC(=O)[C@@H](NC(=O)[C@H](CO)NC(=O)[C@H](Cc1ccc(O)cc1)NC(=O)[C@H](CC(=O)O)NC(=O)[C@H](CO)NC(=O)[C@@H](NC(=O)[C@H](Cc1ccccc1)NC(=O)[C@@H](NC(=O)CNC(=O)[C@@H](N)CCC(=O)O)[C@@H](C)O)[C@@H](C)CC)[C@@H](C)CC)[C@@H](C)CC)C(=O)N[C@@H](CCC(N)=O)C(=O)N[C@@H](CCC(N)=O)C(=O)N[C@@H](CC(=O)O)C(=O)N[C@@H](Cc1ccccc1)C(=O)N[C@H](C(=O)N[C@@H](CC(N)=O)C(=O)N[C@@H](Cc1c[nH]c2ccccc12)C(=O)N[C@@H](CC(C)C)C(=O)N[C@@H](CC(C)C)C(=O)N[C@@H](C)C(=O)N[C@@H](CCC(N)=O)C(=O)N[C@@H](CCCCN)C(=O)NCC(=O)N[C@@H](CCCCN)C(=O)N[C@@H](CCCCN)C(=O)N[C@@H](CC(N)=O)C(=O)N[C@@H](CC(=O)O)C(=O)N[C@@H](Cc1c[nH]c2ccccc12)C(=O)O)C(C)C)C(=O)O)C(=O)O
In the case of B1, the “cAMP agonism % Emax” value was found to be 0%, the “cAMP antagonism” value came to 7.94 nM, the “cAMP antagonism % inhib” value was 100% and the “cAMP antagonism pIC50” value was 8.1.

B2: AT549 (peptide)
peptide: EGTFISDYSIAMDKIHQK([AEEA-AEEA-γGlu-C18 diacid])DFVNWLLAQKGKKNDW-NH2
modifications: N-terminus assumed
SMILES: CC[C@H](C)[C@H](NC(=O)[C@H](CO)NC(=O)[C@H](Cc1ccc(O)cc1)NC(=O)[C@H](CC(=O)O)NC(=O)[C@H](CO)NC(=O)[C@@H](NC(=O)[C@H](Cc1ccccc1)NC(=O)[C@@H](NC(=O)CNC(=O)[C@@H](N)CCC(=O)O)[C@@H](C)O)[C@@H](C)CC)C(=O)N[C@@H](C)C(=O)N[C@@H](CCSC)C(=O)N[C@@H](CC(=O)O)C(=O)N[C@@H](CCCCN)C(=O)N[C@H](C(=O)N[C@@H](Cc1c[nH]cn1)C(=O)N[C@@H](CCC(N)=O)C(=O)N[C@@H](CCCCNC(=O)COCCOCCNC(=O)COCCOCCNC(=O)CC[C@H](NC(=O)CCCCCCCCCCCCCCCCC(=O)O)C(=O)O)C(=O)N[C@@H](CC(=O)O)C(=O)N[C@@H](Cc1ccccc1)C(=O)N[C@H](C(=O)N[C@@H](CC(N)=O)C(=O)N[C@@H](Cc1c[nH]c2ccccc12)C(=O)N[C@@H](CC(C)C)C(=O)N[C@@H](CC(C)C)C(=O)N[C@@H](C)C(=O)N[C@@H](CCC(N)=O)C(=O)N[C@@H](CCCCN)C(=O)NCC(=O)N[C@@H](CCCCN)C(=O)N[C@@H](CCCCN)C(=O)N[C@@H](CC(N)=O)C(=O)N[C@@H](CC(=O)O)C(=O)N[C@@H](Cc1c[nH]c2ccccc12)C(N)=O)C(C)C)[C@@H](C)CC
In the case of B2, the “cAMP agonism % Emax” value came out at 0%, the “cAMP antagonism” value stood at 200 nM, the “cAMP antagonism % inhib” value is 80% and the “cAMP antagonism pIC50” value is 6.7.

B3: AT545 (peptide)
peptide: EGTFISDYSIAMDKIK([AEEA-AEEA-γGlu-C18 diacid])QQDFVNWLLAQKGKKNDW-NH2
modifications: N-terminus assumed
SMILES: CC[C@H](C)[C@H](NC(=O)[C@H](CO)NC(=O)[C@H](Cc1ccc(O)cc1)NC(=O)[C@H](CC(=O)O)NC(=O)[C@H](CO)NC(=O)[C@@H](NC(=O)[C@H](Cc1ccccc1)NC(=O)[C@@H](NC(=O)CNC(=O)[C@@H](N)CCC(=O)O)[C@@H](C)O)[C@@H](C)CC)C(=O)N[C@@H](C)C(=O)N[C@@H](CCSC)C(=O)N[C@@H](CC(=O)O)C(=O)N[C@@H](CCCCN)C(=O)N[C@H](C(=O)N[C@@H](CCCCNC(=O)COCCOCCNC(=O)COCCOCCNC(=O)CC[C@H](NC(=O)CCCCCCCCCCCCCCCCC(=O)O)C(=O)O)C(=O)N[C@@H](CCC(N)=O)C(=O)N[C@@H](CCC(N)=O)C(=O)N[C@@H](CC(=O)O)C(=O)N[C@@H](Cc1ccccc1)C(=O)N[C@H](C(=O)N[C@@H](CC(N)=O)C(=O)N[C@@H](Cc1c[nH]c2ccccc12)C(=O)N[C@@H](CC(C)C)C(=O)N[C@@H](CC(C)C)C(=O)N[C@@H](C)C(=O)N[C@@H](CCC(N)=O)C(=O)N[C@@H](CCCCN)C(=O)NCC(=O)N[C@@H](CCCCN)C(=O)N[C@@H](CCCCN)C(=O)N[C@@H](CC(N)=O)C(=O)N[C@@H](CC(=O)O)C(=O)N[C@@H](Cc1c[nH]c2ccccc12)C(N)=O)C(C)C)[C@@H](C)CC
With B3, the “cAMP agonism % Emax” value is 0%, the “cAMP antagonism” value came to 17.8 nM, the “cAMP antagonism % inhib” value came to 77% and the “cAMP antagonism pIC50” value is 7.8.

B4: AT548 (peptide)
peptide: EGTFISDYSIAMDKIHQK([AEEA-AEEA-γGlu-C18 diacid])DFVNWLLAQKGKKNDW-OH
modifications: N-terminus assumed
SMILES: CC[C@H](C)[C@H](NC(=O)[C@H](CO)NC(=O)[C@H](Cc1ccc(O)cc1)NC(=O)[C@H](CC(=O)O)NC(=O)[C@H](CO)NC(=O)[C@@H](NC(=O)[C@H](Cc1ccccc1)NC(=O)[C@@H](NC(=O)CNC(=O)[C@@H](N)CCC(=O)O)[C@@H](C)O)[C@@H](C)CC)C(=O)N[C@@H](C)C(=O)N[C@@H](CCSC)C(=O)N[C@@H](CC(=O)O)C(=O)N[C@@H](CCCCN)C(=O)N[C@H](C(=O)N[C@@H](Cc1c[nH]cn1)C(=O)N[C@@H](CCC(N)=O)C(=O)N[C@@H](CCCCNC(=O)COCCOCCNC(=O)COCCOCCNC(=O)CC[C@H](NC(=O)CCCCCCCCCCCCCCCCC(=O)O)C(=O)O)C(=O)N[C@@H](CC(=O)O)C(=O)N[C@@H](Cc1ccccc1)C(=O)N[C@H](C(=O)N[C@@H](CC(N)=O)C(=O)N[C@@H](Cc1c[nH]c2ccccc12)C(=O)N[C@@H](CC(C)C)C(=O)N[C@@H](CC(C)C)C(=O)N[C@@H](C)C(=O)N[C@@H](CCC(N)=O)C(=O)N[C@@H](CCCCN)C(=O)NCC(=O)N[C@@H](CCCCN)C(=O)N[C@@H](CCCCN)C(=O)N[C@@H](CC(N)=O)C(=O)N[C@@H](CC(=O)O)C(=O)N[C@@H](Cc1c[nH]c2ccccc12)C(=O)O)C(C)C)[C@@H](C)CC
As to B4, the “cAMP agonism % Emax” value was determined as 0%, the “cAMP antagonism” value came to 126 nM, the “cAMP antagonism % inhib” value came out at 86% and the “cAMP antagonism pIC50” value turned out to be 6.9.

On to TFISDYK([AEEA-AEEA-γGlu-C18])IAMDKIHQQDFVNWLLAQKGKKNDW-OH [AT560], for which the “cAMP antagonism” value worked out at 23.3 nM, the “cAMP antagonism % inhib” value was found to be 100% and the “cAMP antagonism pIC50” value came out at 7.6.

B5: AT631 (peptide)
peptide: EGTFISDYSIAMDKIK(C16 diacid)QQDFVNWLLAQKPSSGAPPPS-OH
modifications: N-terminus assumed
SMILES: CC[C@H](C)[C@H](NC(=O)[C@H](CO)NC(=O)[C@H](Cc1ccc(O)cc1)NC(=O)[C@H](CC(=O)O)NC(=O)[C@H](CO)NC(=O)[C@@H](NC(=O)[C@H](Cc1ccccc1)NC(=O)[C@@H](NC(=O)CNC(=O)[C@@H](N)CCC(=O)O)[C@@H](C)O)[C@@H](C)CC)C(=O)N[C@@H](C)C(=O)N[C@@H](CCSC)C(=O)N[C@@H](CC(=O)O)C(=O)N[C@@H](CCCCN)C(=O)N[C@H](C(=O)N[C@@H](CCCCNC(=O)CCCCCCCCCCCCCCC(=O)O)C(=O)N[C@@H](CCC(N)=O)C(=O)N[C@@H](CCC(N)=O)C(=O)N[C@@H](CC(=O)O)C(=O)N[C@@H](Cc1ccccc1)C(=O)N[C@H](C(=O)N[C@@H](CC(N)=O)C(=O)N[C@@H](Cc1c[nH]c2ccccc12)C(=O)N[C@@H](CC(C)C)C(=O)N[C@@H](CC(C)C)C(=O)N[C@@H](C)C(=O)N[C@@H](CCC(N)=O)C(=O)N[C@@H](CCCCN)C(=O)N1CCC[C@H]1C(=O)N[C@@H](CO)C(=O)N[C@@H](CO)C(=O)NCC(=O)N[C@@H](C)C(=O)N1CCC[C@H]1C(=O)N1CCC[C@H]1C(=O)N1CCC[C@H]1C(=O)N[C@@H](CO)C(=O)O)C(C)C)[C@@H](C)CC
As to B5, the “cAMP agonism % Emax” value amounted to 0%.

B6: AT546 (peptide)
peptide: EGTFISDYSIAMDKIK([AEEA-AEEA-γGlu-Stearoyl])QQDFVNWLLAQKGKKNDW-OH
modifications: N-terminus assumed
SMILES: CCCCCCCCCCCCCCCCCC(=O)N[C@@H](CCC(=O)NCCOCCOCC(=O)NCCOCCOCC(=O)NCCCC[C@H](NC(=O)[C@@H](NC(=O)[C@H](CCCCN)NC(=O)[C@H](CC(=O)O)NC(=O)[C@H](CCSC)NC(=O)[C@H](C)NC(=O)[C@@H](NC(=O)[C@H](CO)NC(=O)[C@H](Cc1ccc(O)cc1)NC(=O)[C@H](CC(=O)O)NC(=O)[C@H](CO)NC(=O)[C@@H](NC(=O)[C@H](Cc1ccccc1)NC(=O)[C@@H](NC(=O)CNC(=O)[C@@H](N)CCC(=O)O)[C@@H](C)O)[C@@H](C)CC)[C@@H](C)CC)[C@@H](C)CC)C(=O)N[C@@H](CCC(N)=O)C(=O)N[C@@H](CCC(N)=O)C(=O)N[C@@H](CC(=O)O)C(=O)N[C@@H](Cc1ccccc1)C(=O)N[C@H](C(=O)N[C@@H](CC(N)=O)C(=O)N[C@@H](Cc1c[nH]c2ccccc12)C(=O)N[C@@H](CC(C)C)C(=O)N[C@@H](CC(C)C)C(=O)N[C@@H](C)C(=O)N[C@@H](CCC(N)=O)C(=O)N[C@@H](CCCCN)C(=O)NCC(=O)N[C@@H](CCCCN)C(=O)N[C@@H](CCCCN)C(=O)N[C@@H](CC(N)=O)C(=O)N[C@@H](CC(=O)O)C(=O)N[C@@H](Cc1c[nH]c2ccccc12)C(=O)O)C(C)C)C(=O)O
B6: the “cAMP agonism % Emax” value was determined as 0%, the “cAMP antagonism” value came out at 12.6 nM, the “cAMP antagonism % inhib” value was 95% and the “cAMP antagonism pIC50” value was determined as 7.9.
